The supplement of paper PMC12042874
± gives the uncertainty stated by the source.

Test: amyloid nucleation score (Sup35N fusion, yeast selection) (log enrichment); library NNK3; higher = more nucleation; inactive = no reads after selection
Method in brief: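 The nucleation score equals the log enrichment of output over input reads from DiMSum, centred on the mode score of non-aggregating sequences. It was computed only for sequences with 100 or more input reads. The reads came from Illumina sequencing of plasmid inserts from psi-negative yeast expressing Sup35N fused to peptides of 20 random codons, induced with 100 μM copper sulfate for 24 hours and grown 7 days at 30°C without adenine and uracil.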

Row | Substance | amyloid nucleation score
1 | VMFIVNLY | 3.07 ± 0.08
2 | VMIFSCYSAYYPNLISHSRW | inactive
3 | VMKPSNVVQGSMNPESSLGM | inactive
4 | VMLRMDARQWHSLATVTVVP | inactive
5 | VMTVVRKSSSSVVAISWISE | 0.392 ± 0.54
6 | VMVCFG | inactive
7 | VMYHGMITLLVMLKTEQRKK | inactive
8 | VNEERGNYVWSCIMRYHLWD | inactive
9 | VNEIF | 0.432 ± 0.23
10 | VNENLTGFIGV | inactive
11 | VNESMNDIANRSDEGYFGCA | inactive
12 | VNGCIRCCTPVSKYISVDLA | inactive
13 | VNIIF | inactive
14 | VNLVLIISNPR | inactive
15 | VNMMRDVVIDKVLFLSSHVA | 1.48 ± 0.12
16 | VNNKSFCRWAGANNLLQVMH | inactive
17 | VNNSRGSAYSEVRSILRRYA | inactive
18 | VNQVVM | inactive
19 | VNRNVLTVSGCCLVYAPLC | 2.26 ± 0.06
20 | VNSRCI | inactive
21 | VNTFGLDHEITSFMMCGETG | inactive
22 | VNVRHTGSLTFFF | 1.01 ± 0.12
23 | VNVVEFTRFRAW | 0.585 ± 0.35
24 | VNYSLLRVNMFKYGSSYPIP | inactive

Row | Substance | amyloid nucleation score
25 | VPFDGLFWYCRCR | inactive
26 | VPGQYWFIDGMTFGNDDTRS | inactive
27 | VPGRVMVLRIWIYRNVQKRG | inactive
28 | VPKPD | inactive
29 | VPLMQGD | 3.16 ± 0.056
30 | VPRMSALRESFHKDNS | inactive
31 | VPTVRLTSSSFL | inactive
32 | VPVVGISYSYLILWFYLYVG | inactive
33 | VPWGIVSFA | inactive
34 | VPWSLCDD | 0.508 ± 0.12
35 | VQFFNDRSLVDSQIGRLLLP | inactive
36 | VQLGAD | inactive
37 | VQLLDLKILIIDSVDSKYVC | inactive
38 | VQRISTIMINV | inactive
39 | VQRSYWICQLPAGVSWSGI | inactive
40 | VQSKMCVKYFWGRHTRHQLG | inactive
41 | VQTSHHNAVEICCMCLCQML | 3.02 ± 0.065
42 | VQWCQDAFVIV | inactive
43 | VQYFPISGDARGRQLQRI | inactive
44 | VRAGTIYRGVYHFCLFCMGE | 0.828 ± 0.15
45 | VRCKVMSSAAATVFFVSGAV | inactive
46 | VRDCTTDTQWERWVETLSPS | inactive
47 | VRFVLDRIACLVGVYIYFWG | inactive
48 | VRLWFSGRTFSVKVVTHAPC | 1.41 ± 0.098

Row | Substance | amyloid nucleation score
49 | VRMQLMWCGP | inactive
50 | VRMVKYCLTLSSRTYCLIIM | inactive
51 | VRREYDWMPHHWMGTGLCKC | inactive
52 | VRVLWI | inactive
53 | VRVSNSFMTDTK | inactive
54 | VRVTVLFEIHGDVCMLMSVA | 0.827 ± 0.13
55 | VRYWTTPVL | inactive
56 | VSALSGGFMENCCQSNFLTP | inactive
57 | VSDRCFKSTWSLMFYMGVVV | inactive
58 | VSESSFRLCGGLRSGCLKSA | inactive
59 | VSFEFEIRESSGISCM | inactive
60 | VSFVSSVIVDGMPEILSIRY | inactive
61 | VSLIVLVRSVCSCVTHSFYE | 2.08 ± 0.097
62 | VSLRQVS | inactive
63 | VSLVMSQVLRHHRCLLIYYL | inactive
64 | VSMIKRLGHCGVLGGKTYRV | -0.671 ± 0.8
65 | VSSAMYYLFKGLAETLRYSS | inactive
66 | VSSCAC | inactive
67 | VSSKDGLFCCL | 0.209 ± 0.66
68 | VSVRYPLNKECFYDCL | inactive
69 | VSWNWATGLRFRPLSCYGLV | inactive
70 | VSWVYRSGRFYDGVGVGYRT | inactive
71 | VSYTRTIPLKGSNLMLIWF | inactive
72 | VSYWNEHHSEIVPLGCF | inactive

Row | Substance | amyloid nucleation score
73 | VTCCARTYYSWP | inactive
74 | VTCWGWSFAGGRHCQVEAGV | -0.456 ± 0.96
75 | VTFSSISHIRRYVSNHMCLG | inactive
76 | VTGNDQ | inactive
77 | VTILMLNHYSYTSLLMRKFN | 0.704 ± 0.12
78 | VTLCLSKLAF | 1.26 ± 0.097
79 | VTLQSSSQVSSCVNNSR | inactive
80 | VTNRIGLV | inactive
81 | VTQMKNTLY | inactive
82 | VTRGVLLCEPVTGMHQVACG | inactive
83 | VTRMDGYVAFISNHSFKSVY | 1.36 ± 0.14
84 | VTSGLERTMFSGNKRRIEVS | inactive
85 | VTSVHTALFSLQNDWNNKGD | inactive
86 | VTSVRPIYSRCLLNYMLRSV | inactive
87 | VTTIVYDSYCPLPRCWTWVG | inactive
88 | VTTSMCAIQD | inactive
89 | VTVIYNVDYCKETIFQMVVT | 0.124 ± 0.48
90 | VTVMT | inactive
91 | VTVQK | inactive
92 | VVCMDLCFLAGSSMSDLDGC | inactive
93 | VVDCWSVKATSDSYDGMWGV | inactive
94 | VVDILFKMHEVDSVI | inactive
95 | VVDLIRNCKDRTVDLLDGIA | inactive
96 | VVDYTARWHRSYSSNGQRRM | inactive

Row | Substance | amyloid nucleation score
97 | VVEPNTRVIWRLLHIDLDKQ | inactive
98 | VVGRSCLFYSIVMY | 0.419 ± 0.67
99 | VVHNYEITWYHL | 1.99 ± 0.074
100 | VVILGLHRVVDRRNAKVAKL | inactive
101 | VVLCVLEYYKFF | 0.848 ± 0.25
102 | VVLFYDSCSG | inactive
103 | VVLGADGRLPF | inactive
104 | VVLYRIGVLSN | inactive
105 | VVNIRDATWAFKLLCGEAHV | inactive
106 | VVNKPIHISSTYTLYSVVLA | inactive
107 | VVRLWE | inactive
108 | VVSLPTNILSNTIGEYMEVQ | inactive
109 | VVSRVMTGSHHVRQFRM | inactive
110 | VVVMPTNSECCYQYGGMFPM | inactive
111 | VVVSSYNCVLVQVVICKWGR | 0.192 ± 0.85
112 | VVWQTHQVHMVMYERVCTWD | inactive
113 | VWDNMMIFLYWFFLKSCSHG | inactive
114 | VWDRRK | inactive
115 | VWDYLVAYYVALKNVTDSGQ | inactive
116 | VWFINFVCLFKGSLLCISES | inactive
117 | VWGLKFTRFVNTQLRRYPTL | inactive
118 | VWLMGMTYF | inactive
119 | VWLWPI | inactive
120 | VWRWGDLNSSGCCMWSRLNM | 1.99 ± 0.1

Row | Substance | amyloid nucleation score
121 | VWVMSSWTVRIISPTVWMLV | inactive
122 | VWVRLTFKTSY | 0.678 ± 0.16
123 | VYCFV | inactive
124 | VYCSSVSCLEVWCGPLHTVR | 1.53 ± 0.081
125 | VYFFSGLGTCD | inactive
126 | VYFGSINYRRGGGYGYHSVI | 0.027 ± 0.71
127 | VYFLSVQLLYLFLSSALQRE | inactive
128 | VYFPTWFTLVFSPSKFWICI | inactive
129 | VYHWFWMQRLNGWFENQQRK | inactive
130 | VYIWRIMTTEIWVRVTWYAG | inactive
131 | VYNQNAKVTN | inactive
132 | VYRRGDIATLLNDI | inactive
133 | VYTGWKKVACNA | -0.211 ± 0.53
134 | VYTRLVYIYQGVFCRIFSAC | 1.86 ± 0.094
135 | VYVMRGSVIWLCRMSMGCCA | inactive
136 | VYVSCRMWNFRKMMMPV | inactive
137 | VYWFKELADSITRCVKNYIY | inactive
138 | VYYNSVNVLSVSGCRLDGLN | 1.66 ± 0.11
139 | WAGESLS | inactive
140 | WASLGINR | inactive
141 | WAWNQSGFTPLYLCLEAWWS | inactive
142 | WAYRCTR | inactive
143 | WCASMRNVCYFVVFMESKLS | 0.294 ± 0.44
144 | WCCLETRLYL | 1.5 ± 0.1

Row | Substance | amyloid nucleation score
145 | WCDLRFISWSFSVFWCV | inactive
146 | WCGGDYVLKNGKFALGVVGS | inactive
147 | WCGQWWLLASGVQSFQCCVY | 1.39 ± 0.13
148 | WCKCYMSSSWTC | inactive
149 | WCLNGSMYLLAVSSG | inactive
150 | WCRVIRTSGIYLGCASSGVV | inactive
151 | WCTFKNLPLWYWTWCAFQGG | inactive
152 | WCTSFGELEVYRVALILRTA | inactive
153 | WDIWCRS | inactive
154 | WDYGKWE | inactive
155 | WEDMVDNHE | 1.32 ± 0.087
156 | WETFPHSFINVLIWDSFELV | inactive
157 | WFAWIH | inactive
158 | WFCLRTTVTPLDGFVLWYWE | inactive
159 | WFFLGFVLIIKWLGLHQYSF | inactive
160 | WFGEYPQFWRARSYFRTSDW | inactive
161 | WFGLIFFLICLYTPQLSLKL | inactive
162 | WFLFRINQFKL | inactive
